In assay [1] the target is recombinant RRV 26–95 gH-FcStrep/gL (rhesus monkey rhadinovirus (RRV) isolate 26–95). As to the kind of experiment: ELISA; RRV 26–95 gH-FcStrep/gL coated at 1μg/ml in PBS; Plxdc1 or Plxdc2 ectodomain 2h at room temperature in 10% FBS in PBS; detected by the C-terminal 6XHis Tag; fit: one site specific binding with Hill slope (Prism6). A general note: ELISA stands for enzyme-linked immunosorbent assay.

The target in assay [2] is RRV 26–95 gH-V5/gL-Flag complex (rhesus monkey rhadinovirus (RRV) isolate 26–95).

Take “human Plxdc1 ectodomain (aa 1–425) with a 6XHis Tag (from UniProt Q8IUK5-1 19-425) (domain or fragment)”: the EC50 (in general, the concentration that produces a half-maximal response) in assay [1] turned out to be 0.0222 µM. Still for that read-out and setting: with “human Plxdc2 ectodomain (aa 1–453) with a 6XHis Tag (from UniProt Q6UX71-1 31-453) (domain or fragment)” the figure was 0.0052 µM. In assay [2], “soluble human Plxdc2, ectodomain (amino acids 31–453) fused to IgG1 Fc with a C-terminal tandem Strep-Tag (from UniProt Q6UX71-1 31-453) (Fc fusion)” yielded an infection of SLK cells by RRV-YFP wt after preincubation with 250nM hPlxdc2-FcStrep, relative to preincubation with FcStrep (Fig 2D) (% of control infection) of 63.5 and an infection of rhesus monkey fibroblasts (RF) by RRV-YFP wt after preincubation with 250nM hPlxdc2-FcStrep, relative to preincubation with FcStrep (Fig 2D) (% of control infection) of 73.9.
